{
  "source": "the supplement of paper PMC12042874",
  "note": "± gives the uncertainty stated by the source.",
  "data": [
    {"assay": "amyloid nucleation score (Sup35N fusion, yeast selection) (log enrichment); library NNK1; higher = more nucleation; inactive = no reads after selection", "procedure,_shortened": "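Plasmid inserts were Illumina-sequenced at input and output from psi-negative yeast expressing Sup35N fused to peptides of 20 random codons. The yeast were induced with 100 μM copper sulfate for 24 hours and grown 7 days at 30°C on medium lacking adenine and uracil, and sequences with under 100 input reads were excluded. Nucleation score is the DiMSum log enrichment of output over input reads, centred on the mode score of non-aggregating sequences.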", "values": [
      {"substance": "IKDNITGKSSYGM", "amyloid nucleation score": "0.418 ± 0.32"},
      {"substance": "IKIRAICVCMFDSQEGLGET", "amyloid nucleation score": "0.601 ± 0.43"},
      {"substance": "IKWTLLDG", "amyloid nucleation score": "0.871 ± 0.47"},
      {"substance": "IKYLSYDVNPPLWFVYNFSF", "amyloid nucleation score": "6.29 ± 0.084"},
      {"substance": "ILKALF", "amyloid nucleation score": "1.53 ± 0.8"},
      {"substance": "ILKRSCEVVL", "amyloid nucleation score": "-0.243 ± 0.47"},
      {"substance": "ILLICYGSCAPNNMVSASTD", "amyloid nucleation score": "-0.959 ± 0.84"},
      {"substance": "ILMHSIAVFTRGIGRIRLAS", "amyloid nucleation score": "0.913 ± 0.68"},
      {"substance": "ILPAYAQ", "amyloid nucleation score": "0.134 ± 1.1"},
      {"substance": "ILPCFDANIIQDP", "amyloid nucleation score": "-0.064 ± 0.81"},
      {"substance": "ILSFSVRLPVHDSSLCFGSG", "amyloid nucleation score": "0.316 ± 0.67"},
      {"substance": "ILYGRIR", "amyloid nucleation score": "inactive"},
      {"substance": "IMCIHSFCFCLRPSHLIVGG", "amyloid nucleation score": "0.774 ± 0.41"},
      {"substance": "IMEGR", "amyloid nucleation score": "5.73 ± 0.1"},
      {"substance": "IMVCN", "amyloid nucleation score": "-0.197 ± 0.42"},
      {"substance": "INDYMLYGVLAYILGHGTVQ", "amyloid nucleation score": "0.622 ± 0.49"},
      {"substance": "INFCFKCWNKVWLDNFFLSS", "amyloid nucleation score": "-0.67 ± 0.22"},
      {"substance": "INLLVPFQNESVLELNATEW", "amyloid nucleation score": "0.772 ± 0.51"},
      {"substance": "INLMGSPS", "amyloid nucleation score": "-0.708 ± 0.28"},
      {"substance": "INRCGGVPARLLLCKLGYLG", "amyloid nucleation score": "0.298 ± 0.5"},
      {"substance": "INRFEG", "amyloid nucleation score": "-0.385 ± 0.68"},
      {"substance": "INTFARRAVVSSLSWSLACH", "amyloid nucleation score": "0.317 ± 0.64"},
      {"substance": "INTKRVRSRHSTR", "amyloid nucleation score": "-0.502 ± 0.79"},
      {"substance": "INVNRG", "amyloid nucleation score": "0.239 ± 0.56"},
      {"substance": "IPKVIGWFTVVTTGVVVNIS", "amyloid nucleation score": "-1.59 ± 2.7"},
      {"substance": "IPNSRLLNI", "amyloid nucleation score": "0.996 ± 0.57"},
      {"substance": "IPTFSKIGKLFYVCGAEFSD", "amyloid nucleation score": "-0.355 ± 0.88"},
      {"substance": "IPVVVV", "amyloid nucleation score": "0.014 ± 0.24"},
      {"substance": "IPWPRTPSSSGMHAL", "amyloid nucleation score": "4.81 ± 0.074"},
      {"substance": "IQGNFRDLGRDKHDTEVWHP", "amyloid nucleation score": "0.858 ± 0.45"},
      {"substance": "IQSIIW", "amyloid nucleation score": "-0.418 ± 0.5"},
      {"substance": "IRCVERGVWSCTFHIQGNCF", "amyloid nucleation score": "-0.84 ± 0.91"},
      {"substance": "IRGTFRVSYGNGKCNSVMNY", "amyloid nucleation score": "0.201 ± 0.42"},
      {"substance": "IRGTLT", "amyloid nucleation score": "-1.42 ± 2.1"},
      {"substance": "IRHNTRRSSIRTET", "amyloid nucleation score": "0.086 ± 0.49"},
      {"substance": "IRMFSTLLACNLVIGGCLAN", "amyloid nucleation score": "6.482 ± 0.053"},
      {"substance": "IRRRRTNIWGWAIYRAISIY", "amyloid nucleation score": "0.345 ± 0.4"},
      {"substance": "IRSEDKITFPGLCKSRLELV", "amyloid nucleation score": "0.845 ± 0.67"},
      {"substance": "IRSLKNPF", "amyloid nucleation score": "0.275 ± 1.2"},
      {"substance": "IRTPYIWLTCRGPYEVRRWD", "amyloid nucleation score": "-0.247 ± 0.69"},
      {"substance": "IRVINYFVWSWTLTIIADFI", "amyloid nucleation score": "-1.25 ± 2.4"},
      {"substance": "ISALGF", "amyloid nucleation score": "1.98 ± 0.72"},
      {"substance": "ISCVICAMIILRWHV", "amyloid nucleation score": "0.045 ± 0.9"},
      {"substance": "ISEKRISMCGIRNKYIWGHG", "amyloid nucleation score": "-0.953 ± 1.1"},
      {"substance": "ISFPSSDYGGGSAPVEGWLG", "amyloid nucleation score": "0.47 ± 1.2"},
      {"substance": "ISGNRSKVWNDGWIRPRYLC", "amyloid nucleation score": "0.679 ± 0.84"},
      {"substance": "ISINLRLVRHRGWGNISCWR", "amyloid nucleation score": "2.2 ± 0.33"},
      {"substance": "ISLAVWGFSILLRIADCSMI", "amyloid nucleation score": "0.123 ± 1.2"},
      {"substance": "ISLYVSNYRAYDKSPLGEDW", "amyloid nucleation score": "0.398 ± 0.74"},
      {"substance": "ISNGIYISKEGFHEWSNRH", "amyloid nucleation score": "4.18 ± 0.064"},
      {"substance": "ISQVYGDNTDFVLLVSSDNV", "amyloid nucleation score": "0.544 ± 0.33"},
      {"substance": "ISRPSSSGRLHVVMTSSNAR", "amyloid nucleation score": "0.421 ± 0.39"},
      {"substance": "ISTDPWAAHYNRTHIQ", "amyloid nucleation score": "1.98 ± 0.15"},
      {"substance": "ISTPIDDPKCLGSLVYFHQM", "amyloid nucleation score": "-0.693 ± 0.53"},
      {"substance": "ISVGCF", "amyloid nucleation score": "0.201 ± 0.49"},
      {"substance": "ISWSASLDIDINCQCRGLWG", "amyloid nucleation score": "3.35 ± 0.1"},
      {"substance": "ISYMHKLCLFSFYLDHKLTL", "amyloid nucleation score": "-1.49 ± 1.4"},
      {"substance": "ISYSLRGSVRR", "amyloid nucleation score": "-0.032 ± 0.41"},
      {"substance": "ITCLRSCLLFNFSGCTTSDQ", "amyloid nucleation score": "4.11 ± 0.071"},
      {"substance": "ITCYGKCYPSRDKL", "amyloid nucleation score": "1.27 ± 0.56"},
      {"substance": "ITGPIEGGVTK", "amyloid nucleation score": "-0.118 ± 0.8"},
      {"substance": "ITMNVRSSYGLSVIMIELGL", "amyloid nucleation score": "1.02 ± 0.76"},
      {"substance": "ITPDVGSGTFEV", "amyloid nucleation score": "0.022 ± 1.1"},
      {"substance": "ITPYQQFWLIVDTIGNMMEI", "amyloid nucleation score": "2.07 ± 0.2"},
      {"substance": "ITVRPLPYRPIDVHRYFAQH", "amyloid nucleation score": "0.77 ± 0.34"},
      {"substance": "IVGSLYLELYSRR", "amyloid nucleation score": "1.57 ± 0.18"},
      {"substance": "IVHMIYWVM", "amyloid nucleation score": "0.009 ± 0.61"},
      {"substance": "IVIFPFFLVISDLYVVVSLG", "amyloid nucleation score": "-0.077 ± 0.53"},
      {"substance": "IVKWLMGMHWLMLAHGV", "amyloid nucleation score": "0.181 ± 1.4"},
      {"substance": "IVLVR", "amyloid nucleation score": "-1.21 ± 0.69"},
      {"substance": "IVMCEAYFK", "amyloid nucleation score": "inactive"},
      {"substance": "IVPPLSNCSFIG", "amyloid nucleation score": "-0.293 ± 0.6"},
      {"substance": "IVTCESGCRLKSSRDKCPSR", "amyloid nucleation score": "0.284 ± 0.59"},
      {"substance": "IVVFQGVCTKMLRTDELIWR", "amyloid nucleation score": "1.18 ± 0.2"},
      {"substance": "IVYTYRVNIVII", "amyloid nucleation score": "7.528 ± 0.044"},
      {"substance": "IWCFLI", "amyloid nucleation score": "0.333 ± 0.55"},
      {"substance": "IWILYLAFIVHKNVLLPRVL", "amyloid nucleation score": "0.123 ± 0.49"},
      {"substance": "IWLLGSVHRLDSLVTDCKTS", "amyloid nucleation score": "1.08 ± 0.63"},
      {"substance": "IWNVTPRGFDSAD", "amyloid nucleation score": "-0.345 ± 0.97"},
      {"substance": "IWWFSTFVRRRRAAVKVHKA", "amyloid nucleation score": "inactive"},
      {"substance": "IWYFLCICSLYRLEYHLLDC", "amyloid nucleation score": "-0.405 ± 0.25"},
      {"substance": "IYCHWNGFRGPYVIPRGCVV", "amyloid nucleation score": "0.819 ± 0.51"},
      {"substance": "IYGCTCVDFGLSSNS", "amyloid nucleation score": "-0.46 ± 0.84"},
      {"substance": "IYGTGFIWMFSVPKLERG", "amyloid nucleation score": "-0.537 ± 1.1"},
      {"substance": "IYNGVTGRYWTSHI", "amyloid nucleation score": "-0.989 ± 0.7"},
      {"substance": "IYNGWQIRGNVNMMLCVCEW", "amyloid nucleation score": "6.568 ± 0.059"},
      {"substance": "IYNTYPTRRLRLQRGYYSME", "amyloid nucleation score": "-0.607 ± 1.5"},
      {"substance": "IYRSVANSMKVSEYQIPLDS", "amyloid nucleation score": "-0.18 ± 0.54"}
    ]}
  ]
}
